Source: article PMC12023411, “Quaternary stabilization of a GH2 β‐galactosidase from the psychrophile A. ikkensis, a flexible and unstable dimeric enzyme” (Protein Science : A Publication of the Protein Society, 2025)
Several values for one entry are separate records, joined by “and”; a condition that tells them apart may be missing. Equal values may be shown once. One block for each compound: values may come before it.

Columns and labels:
[1] = molecular target: GH2 β-galactosidase from Alkalilactibacillus ikkensis (AiLac), wild type (Alkalilactibacillus ikkensis); test: SAXS; 0.40 mg/mL AiLac in 50 mM bis-tris propane, pH 7.0-8.0, 20°C; mass from I(0)
[2] = molecular target: GH2 β-galactosidase from Alkalilactibacillus ikkensis (AiLac), wild type (Alkalilactibacillus ikkensis); test: SAXS; second peak of the SEC purification, 1.15 mg/mL, buffer A, 20°C, 1800 s; mass from I(0)
[3] = molecular target: GH2 β-galactosidase from Alkalilactibacillus ikkensis (AiLac), wild type (Alkalilactibacillus ikkensis); test: SEC-MALS; Superdex 200 10/300 GL Increase, buffer A (PBS + 0.1 mM MgCl2, pH 7.0), room temperature, 0.5 mL/min, 50 μL of 1.5 mg/mL Ni-NTA purified protein loaded
[4] = molecular target: GH2 β-galactosidase from Alkalilactibacillus ikkensis (AiLac), wild type (Alkalilactibacillus ikkensis); test: DSF (melting temperature against protein concentration); apparent; SEC-purified AiLac at 3.9 μg/mL to 4 mg/mL, 0.5°C/min, buffer A; tm fitted to the monomer-dimer equation (5); dimer to monomers
[5] = molecular target: GH2 β-galactosidase from Alkalilactibacillus ikkensis (AiLac), wild type (Alkalilactibacillus ikkensis); test: flow-induced dispersion analysis (FIDA); 125 nM (WT) or 60 nM (TM) Alexa Fluor 488-labelled protein as indicator, pre-mixed with unlabelled protein of the same kind, 4 h at 4°C, buffer A; Rh fitted to a monomer-dimer model; constant of dimer to monomers
[6] = molecular target: GH2 β-galactosidase from Alkalilactibacillus ikkensis (AiLac), wild type (Alkalilactibacillus ikkensis); test: as above; remark: listed apart in the source
EcLac = molecular target: T1, EcLac (Escherichia coli, UniProt P00722); test: ONPG hydrolysis, absorbance […] nm; type: biochemical; settings: PBS pH 7.0, 0.1 mM MgCl2, 5 mM ONPG, 8 nM enzyme; temperature series
T1 construct: gene lacZ; commercial enzyme purchased from Sigma, lyophilized; homotetramer

[7] = molecular target: AiLac triple mutant (V648E, F702L, T742V) (Alkalilactibacillus ikkensis); test: mass photometry; TwoMP mass photometer, 21°C; 0.25 μL of a 1 mg/mL (8.4 μM) stock added to 19.75 μL buffer, about 100 nM final
[8] = molecular target: AiLac triple mutant (V648E, F702L, T742V) (Alkalilactibacillus ikkensis); test: flow-induced dispersion analysis (FIDA); 125 nM (WT) or 60 nM (TM) Alexa Fluor 488-labelled protein as indicator, pre-mixed with unlabelled protein of the same kind, 4 h at 4°C, buffer A; Rh fitted to a monomer-dimer model; constant of dimer to monomers

T1 sequence (P00722 whole entry): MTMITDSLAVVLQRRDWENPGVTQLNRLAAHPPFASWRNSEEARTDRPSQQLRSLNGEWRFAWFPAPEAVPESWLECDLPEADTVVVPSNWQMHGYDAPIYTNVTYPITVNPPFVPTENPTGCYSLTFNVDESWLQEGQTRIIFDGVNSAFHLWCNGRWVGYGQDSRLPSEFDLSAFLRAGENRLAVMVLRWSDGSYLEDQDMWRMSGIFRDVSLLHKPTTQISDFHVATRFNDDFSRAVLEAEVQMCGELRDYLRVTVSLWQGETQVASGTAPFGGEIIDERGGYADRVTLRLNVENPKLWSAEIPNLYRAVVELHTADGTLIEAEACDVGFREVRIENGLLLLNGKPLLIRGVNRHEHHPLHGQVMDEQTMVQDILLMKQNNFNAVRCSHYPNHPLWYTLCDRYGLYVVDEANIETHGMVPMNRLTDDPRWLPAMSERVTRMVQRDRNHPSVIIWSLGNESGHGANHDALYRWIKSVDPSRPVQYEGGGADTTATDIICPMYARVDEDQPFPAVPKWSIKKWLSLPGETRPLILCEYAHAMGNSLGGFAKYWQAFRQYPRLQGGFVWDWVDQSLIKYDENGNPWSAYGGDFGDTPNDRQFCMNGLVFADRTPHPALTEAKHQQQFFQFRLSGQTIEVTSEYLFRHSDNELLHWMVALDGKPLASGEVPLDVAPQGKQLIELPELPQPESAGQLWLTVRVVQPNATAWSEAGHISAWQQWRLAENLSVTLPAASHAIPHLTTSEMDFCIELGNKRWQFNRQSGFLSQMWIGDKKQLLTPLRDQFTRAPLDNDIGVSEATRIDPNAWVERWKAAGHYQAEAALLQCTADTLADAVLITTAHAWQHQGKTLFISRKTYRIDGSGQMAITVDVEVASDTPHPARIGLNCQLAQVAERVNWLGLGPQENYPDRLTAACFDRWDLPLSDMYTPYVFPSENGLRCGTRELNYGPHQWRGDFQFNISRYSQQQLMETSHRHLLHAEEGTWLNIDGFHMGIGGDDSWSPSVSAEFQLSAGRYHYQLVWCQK

stoichiometry N [1]: 2
stoichiometry N [2]: 1.7 monomers
stoichiometry N [3]: 4 and 2
Kd [4]: 0.15 µM
Kd [5]: 0.23 µM
stoichiometry N [5]: 2
Kd [6]: 0.3 µM
Compound: GH2 β-galactosidase from Alkalilactibacillus ikkensis (AiLac), wild type (enzyme)

Compound: O=[N+]([O-])c1ccccc1O[C@@H]1O[C@H](CO)[C@H](O)[C@H](O)[C@H]1O [ONPG]
specific activity (EcLac): Activity of the AiLac and EcLac (purchased from Sigma) was assessed by hydrolysis of ONPG

stoichiometry N [7]: 4
stoichiometry N [8]: 2 and 4
Compound: AiLac triple mutant (V648E, F702L, T742V) (enzyme)
